Numbered stars: 1 amine (or outer) side, 2 acyl side, 3 side chain; on linkers, the order of the positions; unused ones are H or OH. Square brackets hold non-standard residues; d marks the D form. Ends that are not written are not given here. X3 = Pro(4S-(4-(4-aminophenyl)-1,2,3-triazol-1-yl)), O=C([C@@H]1C[C@H](n2cc(-c3ccc(N[*:3])cc3)nn2)CN1[*:1])[*:2]; Cit = NC(=O)NCCC[C@H](N)C(=O)O
Biological target: Full-length HIV-1 YU2 gp120 (HIV-1 YU2, UniProt P35961 32-498)
Assay: ELISA

[Cit]NNI[X3]WS-NH2 [UM25 peptide triazole]
IC50: 18 µM
